Results: PMC2903388

Legend:
[1] = biological target: Mouse tail tendon type I collagen heterotrimer α1(I)2α2(I) (mouse) (UniProt P11087); experiment: equilibrium microdialysis
[2] = biological target: Mouse tail tendon type I collagen homotrimer α1(I)3 (mouse) (UniProt P11087); experiment: equilibrium microdialysis
Sequence of Mouse tail tendon type I collagen homotrimer α1(I)3 (mouse) (P11087 152-1207): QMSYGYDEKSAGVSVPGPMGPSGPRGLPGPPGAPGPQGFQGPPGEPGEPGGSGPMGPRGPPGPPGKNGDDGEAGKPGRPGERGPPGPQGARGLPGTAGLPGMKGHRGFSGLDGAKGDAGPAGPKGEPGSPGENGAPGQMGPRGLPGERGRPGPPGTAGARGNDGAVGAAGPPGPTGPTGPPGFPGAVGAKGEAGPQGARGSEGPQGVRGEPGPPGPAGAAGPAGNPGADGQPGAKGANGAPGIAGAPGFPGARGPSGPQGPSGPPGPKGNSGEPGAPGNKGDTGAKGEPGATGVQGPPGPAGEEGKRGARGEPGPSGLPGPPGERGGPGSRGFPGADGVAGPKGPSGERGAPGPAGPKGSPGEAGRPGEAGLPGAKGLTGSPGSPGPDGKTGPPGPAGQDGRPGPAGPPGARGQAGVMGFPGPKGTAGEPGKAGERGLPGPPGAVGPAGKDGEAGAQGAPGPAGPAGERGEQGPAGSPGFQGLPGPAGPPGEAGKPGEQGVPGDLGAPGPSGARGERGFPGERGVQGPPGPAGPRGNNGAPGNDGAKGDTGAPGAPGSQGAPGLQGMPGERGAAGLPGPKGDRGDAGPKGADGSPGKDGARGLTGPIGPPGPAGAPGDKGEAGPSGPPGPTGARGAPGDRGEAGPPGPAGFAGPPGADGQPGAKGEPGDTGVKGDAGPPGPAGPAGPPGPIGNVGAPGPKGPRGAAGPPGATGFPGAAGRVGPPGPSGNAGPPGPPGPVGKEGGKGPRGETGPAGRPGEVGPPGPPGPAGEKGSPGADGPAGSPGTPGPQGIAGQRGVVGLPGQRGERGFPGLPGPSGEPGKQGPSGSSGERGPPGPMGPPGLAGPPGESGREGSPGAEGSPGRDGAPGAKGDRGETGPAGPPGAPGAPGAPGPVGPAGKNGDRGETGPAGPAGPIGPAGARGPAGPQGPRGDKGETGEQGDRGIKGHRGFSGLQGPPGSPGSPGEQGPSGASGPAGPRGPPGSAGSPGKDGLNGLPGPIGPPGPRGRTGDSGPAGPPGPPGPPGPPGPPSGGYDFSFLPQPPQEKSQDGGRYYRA

Sequence of Mouse tail tendon type I collagen heterotrimer α1(I)2α2(I) (mouse) (P11087 152-1207, chain 1 of 2): as the sequence (P11087 152-1207) above
Sequence of Mouse tail tendon type I collagen heterotrimer α1(I)2α2(I) (mouse) (Q01149 86-1125, chain 2 of 2, further chain): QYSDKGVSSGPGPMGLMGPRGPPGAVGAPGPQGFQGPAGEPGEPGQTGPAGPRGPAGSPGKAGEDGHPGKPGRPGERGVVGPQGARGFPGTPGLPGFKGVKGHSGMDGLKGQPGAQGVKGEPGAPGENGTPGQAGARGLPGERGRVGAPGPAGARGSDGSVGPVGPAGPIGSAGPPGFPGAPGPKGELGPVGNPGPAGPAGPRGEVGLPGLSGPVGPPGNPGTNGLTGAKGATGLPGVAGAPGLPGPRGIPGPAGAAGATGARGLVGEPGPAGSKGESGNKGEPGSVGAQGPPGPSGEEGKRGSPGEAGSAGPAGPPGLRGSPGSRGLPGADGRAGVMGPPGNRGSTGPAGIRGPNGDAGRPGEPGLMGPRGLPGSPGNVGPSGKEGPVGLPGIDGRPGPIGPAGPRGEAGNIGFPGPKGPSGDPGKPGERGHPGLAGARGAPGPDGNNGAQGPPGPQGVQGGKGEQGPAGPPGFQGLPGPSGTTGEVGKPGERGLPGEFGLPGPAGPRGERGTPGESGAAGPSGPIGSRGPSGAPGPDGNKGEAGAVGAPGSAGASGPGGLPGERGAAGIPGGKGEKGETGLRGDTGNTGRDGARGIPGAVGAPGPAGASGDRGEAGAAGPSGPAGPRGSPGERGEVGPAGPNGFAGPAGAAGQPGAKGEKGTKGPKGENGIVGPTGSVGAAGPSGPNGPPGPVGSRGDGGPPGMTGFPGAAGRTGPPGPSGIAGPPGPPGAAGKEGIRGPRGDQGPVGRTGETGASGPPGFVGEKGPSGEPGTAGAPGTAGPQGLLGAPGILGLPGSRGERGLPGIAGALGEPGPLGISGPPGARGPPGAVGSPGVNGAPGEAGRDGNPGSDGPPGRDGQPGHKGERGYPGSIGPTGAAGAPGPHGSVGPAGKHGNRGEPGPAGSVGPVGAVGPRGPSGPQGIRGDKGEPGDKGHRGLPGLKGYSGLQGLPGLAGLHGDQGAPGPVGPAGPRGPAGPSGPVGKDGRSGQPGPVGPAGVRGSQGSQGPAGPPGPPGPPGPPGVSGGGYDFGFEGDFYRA

MMP-1(E200A), activated recombinant human fibroblast collagenase with Glu-200 substituted with Ala (enzyme)
KD, high-affinity site [1]: 1.3 µM
KD, low-affinity sites [1]: > 50 µM
N, high-affinity site (MMP-1(E200A) per collagen triple helix) [1]: 1
KD, high-affinity site [2]: 1.3 µM
KD, low-affinity sites [2]: > 50 µM
N, high-affinity site (MMP-1(E200A) per collagen triple helix) [2]: 1
